The assay addresses Gα15 (mammalian).

We go through 1 substance from patent publication US20050153368A1.

“Anopheles gambiae odorant receptor 1 (from UniProt Q8WTE7)” displayed a clamp current on perfusion with 4-methyl phenol, voltage clamp of Xenopus oocytes expressing AgOR1/Gα15 of 20 nA.
